# According to publication PMC6443781:
# Columns and labels:
# [1] = biological target: GFP-AP2B1 full length (FL) (UniProt P63010); assay: co-immunoprecipitation (anti-Myc IP, anti-AP2B1 blot, band quantification); conditions: 293FT cells transfected with GFP-AP2B1 and Myc-BUBR1; n = 3 independent experiments; parent: 1
# [2] = biological target: AP2M1 (residues 160–435) (human) (UniProt Q96CW1); assay: ITC; MicroCal ITC200, 20 °C, 25 mM HEPES pH 7.5, 50 mM NaCl; AP2M1 (160–435) 50 µM in the cell, IRS1 peptide (about 0.5 mM) injected
# UniProt Q96CW1, sequence (Q96CW1 160-435): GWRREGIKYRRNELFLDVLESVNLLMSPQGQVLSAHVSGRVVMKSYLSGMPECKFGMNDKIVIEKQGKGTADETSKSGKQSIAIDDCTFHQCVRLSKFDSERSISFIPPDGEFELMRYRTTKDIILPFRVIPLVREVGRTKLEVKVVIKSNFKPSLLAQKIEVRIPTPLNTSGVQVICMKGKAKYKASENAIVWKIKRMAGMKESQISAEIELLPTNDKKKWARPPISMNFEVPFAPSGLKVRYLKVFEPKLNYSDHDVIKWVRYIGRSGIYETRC
# AP2M1 160-435 [3] = biological target: AP2M1 160-435 (UniProt Q96CW1); assay: peptide-bead pull-down, Coomassie; conditions: reference: unphosphorylated peptide YMPMS
# AP2M1 160-435 [4] = biological target: AP2M1 160-435 (UniProt Q96CW1); assay: isothermal titration calorimetry; conditions: reference: unphosphorylated peptide YMPMS; sites S616
# UniProt P63010, sequence (P63010 whole entry, the tested form may be a part): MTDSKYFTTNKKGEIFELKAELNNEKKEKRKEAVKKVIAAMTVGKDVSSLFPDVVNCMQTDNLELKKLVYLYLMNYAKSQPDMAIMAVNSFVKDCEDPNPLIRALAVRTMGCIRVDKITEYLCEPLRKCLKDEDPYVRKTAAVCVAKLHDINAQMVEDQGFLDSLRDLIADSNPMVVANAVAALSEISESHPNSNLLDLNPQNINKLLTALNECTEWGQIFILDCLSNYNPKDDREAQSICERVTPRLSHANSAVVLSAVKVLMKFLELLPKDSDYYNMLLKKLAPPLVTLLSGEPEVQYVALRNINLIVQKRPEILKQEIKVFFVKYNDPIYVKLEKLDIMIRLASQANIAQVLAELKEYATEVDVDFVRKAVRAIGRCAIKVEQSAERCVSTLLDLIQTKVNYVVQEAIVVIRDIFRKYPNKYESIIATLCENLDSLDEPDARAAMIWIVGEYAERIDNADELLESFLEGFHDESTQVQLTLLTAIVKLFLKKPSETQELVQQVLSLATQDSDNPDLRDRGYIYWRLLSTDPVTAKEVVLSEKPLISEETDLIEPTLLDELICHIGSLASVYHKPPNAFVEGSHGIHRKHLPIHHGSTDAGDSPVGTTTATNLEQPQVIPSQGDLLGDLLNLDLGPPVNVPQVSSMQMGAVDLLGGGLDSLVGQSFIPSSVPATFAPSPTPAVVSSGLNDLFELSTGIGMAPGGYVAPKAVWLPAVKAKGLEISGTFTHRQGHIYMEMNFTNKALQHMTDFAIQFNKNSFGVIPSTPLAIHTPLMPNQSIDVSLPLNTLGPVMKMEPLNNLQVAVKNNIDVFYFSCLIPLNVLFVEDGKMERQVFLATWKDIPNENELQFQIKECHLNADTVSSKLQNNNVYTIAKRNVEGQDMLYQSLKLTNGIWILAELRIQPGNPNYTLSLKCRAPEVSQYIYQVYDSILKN
Substance,ratio to parent [1],also measured
Myc-BUBR1 full length (WT) (from UniProt O60566) ΔPhe; ΔD2,0.67,–
Myc-BUBR1 full length (WT) (from UniProt O60566) ΔKEN1,1.31,–
phospho-serine IRS1 peptide (pS-IRS1; YMPMpS),–,Kd [2]: 280 nM
unphosphorylated IRS1 peptide (YMPMS),–,Kd [2]: 2030 nM
Myc-BUBR1 full length (WT) (from UniProt O60566) ΔPhe,0.75,–
IRS1 607-620 (from UniProt P35568) YMPMpS peptide,–,binding against the reference (AP2M1 160-435 [3]; sites S616): stronger; KD (AP2M1 160-435 [4]): stronger; reference 2.03 µM
IRS1 607-620 (from UniProt P35568) pYMPMS peptide,–,binding against the reference (AP2M1 160-435 [3]; sites Y612): lost
Myc-BUBR1 full length (WT) (from UniProt O60566) ΔD2,0.72,–
Myc-BUBR1 full length (WT) (from UniProt O60566) ΔKEN2,0.94,–
